Legend:
[1] = biological target: C-terminal domain of FusB, wild type (Pectobacterium carotovorum LMG2410); assay: ITC; 25 °C, SEC Buffer (20 mM Hepes, 140 mM NaCl, pH 8.0), MicroCal iTC200; typically 1.1 mM injectant, 19 x 2 µl, into 85 µM protein in the cell; FusB-CTD constructs normally in the cell; mean of the titrations listed in Table S2
[2] = biological target: C-terminal domain of FusB, D322N variant (Pectobacterium carotovorum LMG2410); assay: as above
[3] = biological target: FusB-CTD R241K (Pectobacterium carotovorum LMG2410); assay: ITC; 25 °C, SEC Buffer (20 mM Hepes, 140 mM NaCl, pH 8.0); typically 1.1 mM analyte injected 19 x 2 μl into 85 μM ligand in the cell; FusB-CTD constructs normally in the cell, SpFer and FusANTR-GFP constructs as injectants
[4] = biological target: FusB-CTD D322N (Pectobacterium carotovorum LMG2410); assay: as above
[5] = biological target: C-terminal domain of FusB (FusB-CTD), wild type (Pectobacterium carotovorum LMG2410); assay: ITC; competition, sequential titration: SpFer injected into the cell holding FusB-CTD (wild type or D322N) pretitrated with ~2.5 M excess of FusANTR-GFP (wild type or D53A); 25 °C, SEC Buffer; apparent
[6] = biological target: C-terminal domain of FusB (FusB-CTD), wild type (Pectobacterium carotovorum LMG2410); assay: ITC; 25 °C, SEC Buffer (20 mM Hepes, 140 mM NaCl, pH 8.0); typically 1.1 mM analyte injected 19 x 2 μl into 85 μM ligand in the cell; FusB-CTD constructs normally in the cell, SpFer and FusANTR-GFP constructs as injectants
[7] = biological target: C-terminal domain of FusB (FusB-CTD), wild type (Pectobacterium carotovorum LMG2410); assay: SEC; FusB-CTD alone at varying load (0.2, 0.5, 0.8, 1.2, 2 mg); wild type and variants compared at 0.5 mg loaded; monomer and dimer species
[8] = biological target: C-terminal domain of FusB, R242K variant (Pectobacterium carotovorum LMG2410); assay: ITC; 25 °C, SEC Buffer (20 mM Hepes, 140 mM NaCl, pH 8.0), MicroCal iTC200; typically 1.1 mM injectant, 19 x 2 µl, into 85 µM protein in the cell; FusB-CTD constructs normally in the cell; mean of the titrations listed in Table S2
[9] = biological target: C-terminal domain of FusB, D322N variant (Pectobacterium carotovorum LMG2410); assay: ITC; competition, apparent: SpFer injected into the cell holding FusB-CTD (wild type or D322N) pretitrated with ~2.5 M excess of FusANTR-GFP (wild type or D53A); 25 °C, SEC Buffer
[10] = biological target: FusB-CTD R241A (Pectobacterium carotovorum LMG2410); assay: ITC; 25 °C, SEC Buffer (20 mM Hepes, 140 mM NaCl, pH 8.0); typically 1.1 mM analyte injected 19 x 2 μl into 85 μM ligand in the cell; FusB-CTD constructs normally in the cell, SpFer and FusANTR-GFP constructs as injectants

Spinacia oleracea (spinach) ferredoxin 1 with a C-terminal 6His-tag (from UniProt P00221 51-147) (natural protein)
Kd [1]: 18.1 µM

GFP fusion construct containing the N-terminal region (residues 21-66) of FusA, D53A variant (domain or fragment)
Kd [2]: 31.8 µM

Spinacia oleracea (spinach) ferredoxin 1 (SpFer), wild type, recombinant (from UniProt P00221 51-147) (natural protein)
Kd [3]: 25.5 µM | Kd [4]: 7.4 µM | apparent KD with ~2.5 M excess of FusANTR-GFP [5]: 22.3 µM

SpFer F64Y (natural protein)
Kd [6]: 30.7 µM

C-terminal domain of FusB (FusB-CTD), wild type (domain or fragment)
stoichiometry N [7]: 2

SpFer E93A/E94A (from UniProt P00221 51-147) (natural protein)
Kd [6]: 31.3 µM

GFP fusion construct containing the N-terminal region (residues 21-66) of FusA (domain or fragment)
Kd [1]: 31.2 µM | stoichiometry N [1]: < 0.2 | Kd [8]: 33 µM | stoichiometry N [8]: < 0.2

Spinacia oleracea (spinach) ferredoxin 1, recombinant, tag-free (from UniProt P00221 51-147) (natural protein)
Kd [1]: 7.8 µM | Kd [9]: 17.7 µM

GFP fusion construct containing the N-terminal region (residues 21-66) of FusA (FusANTR-GFP), wild type (from UniProt C6DG80 21-66) (domain or fragment)
Kd [3]: 25.3 µM | Kd [4]: 9.4 µM | Kd [10]: 38.8 µM

FusANTR-GFP D53A (from UniProt C6DG80 21-66) (domain or fragment)
Kd [6]: 31.6 µM | Kd [4]: 31.8 µM

From paper PMC13253070
